From patent US20200148774A1 (Genentech, published 2020)
“And” between values parts separate entries of the source, which are not always exact repeats. Equal values may be shown once.

T1: human CLL-1 on cells (endogenous on HL-60, EOL-1 and other AML cell lines and CD14+ monocytes); recombinant on … (human, UniProt Q5QGZ9 1-265)
T1 sequence: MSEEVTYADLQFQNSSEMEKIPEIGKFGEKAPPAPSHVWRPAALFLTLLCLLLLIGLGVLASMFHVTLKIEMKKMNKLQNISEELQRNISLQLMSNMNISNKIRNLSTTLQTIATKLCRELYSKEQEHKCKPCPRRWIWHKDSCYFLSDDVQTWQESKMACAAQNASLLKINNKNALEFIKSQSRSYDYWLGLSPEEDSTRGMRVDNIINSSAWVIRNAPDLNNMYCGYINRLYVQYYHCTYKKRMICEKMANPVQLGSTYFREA

T2: recombinant cynomolgus CLL-1 extracellular domain (ECD, amino acids 65-265) fused to an N-terminal Flag (cynomolgus monkey)
T2 construct: Construct stated for the immunogen; also called CynoCLL-1 Flag; cynoCLL-1
T2 chain: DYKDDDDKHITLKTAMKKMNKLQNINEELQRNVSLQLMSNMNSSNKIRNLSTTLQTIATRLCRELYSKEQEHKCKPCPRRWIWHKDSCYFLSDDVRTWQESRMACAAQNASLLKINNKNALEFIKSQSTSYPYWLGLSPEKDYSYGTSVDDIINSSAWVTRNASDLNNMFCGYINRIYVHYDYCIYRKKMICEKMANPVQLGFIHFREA

T3: recombinant human CLL-1 extracellular domain (ECD, amino acids 65-265) fused to an N-terminal Flag (human, UniProt Q5QGZ9 65-265)
T3 construct: The construct and the K244Q SNP are stated for the immunogen; they are not written as a piece; also called huCLL-1-Flag; huCLL-1
T3 chain: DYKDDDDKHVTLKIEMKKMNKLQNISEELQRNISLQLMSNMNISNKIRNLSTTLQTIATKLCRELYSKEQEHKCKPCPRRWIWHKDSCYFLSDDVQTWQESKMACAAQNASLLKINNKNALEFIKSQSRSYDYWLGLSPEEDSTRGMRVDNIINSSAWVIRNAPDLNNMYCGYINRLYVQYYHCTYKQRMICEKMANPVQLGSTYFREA


Assays:
[1] = molecular target: T1, human CLL-1 on cells (endogenous on …); experiment: cell-based or functional assay
[2] = molecular target: T1, human CLL-1 on cells (endogenous on …); experiment: cell-based or functional assay; remark: listed apart in the source
[3] = molecular target: T1, human CLL-1 on cells (endogenous on …); experiment: cell-based or functional assay; remark: listed apart in the source
[4] = molecular target: T1, human CLL-1 on cells (endogenous on …); experiment: Scatchard, 293AD/huCLL-1 cells
Method: (§1) Competition assay mixtures of 50 μL volume containing a fixed concentration of [1¹²⁵] labeled antibody and decreasing concentrations of serially diluted, unlabeled antibody were placed into 96-well plates. HEK293AD cells stably expressing recombinant hu or cynoCLL-1 or HL-60 tumor cells expressing endogenous CLL-1 were cultured in growth media at 37° C. in 5% CO₂. Cells were detached from the flask using Sigma Cell Dissociation Solution and were washed with binding buffer, which consisted of Dulbecco's Modified Eagle Medium (DMEM) with 1% bovine serum albumin (BSA), […] and 0.1% sodium azide. The washed cells were added to the 96 well plates at a density of 100,000 cells in 0.2 mL of binding buffer. […] The final concentration of the unlabeled antibody in the competition assay ranged from 1000 nM through ten 2-fold dilution steps to a 0 nM buffer-only assay. Competition assays were carried out in triplicate. Competition assays were incubated for 2 hours at room temperature. After the 2-hour incubation, the competition assays were transferred to a Millipore Multiscreen filter plate (Billerica, Mass.) and washed 4 times with binding buffer to separate the free from bound [I¹²⁵] labeled antibody. The filters were counted on a Wallac Wizard 1470 gamma counter (PerkinElmer Life and Analytical Sciences Inc.; Wellesley, Mass.). The binding data was evaluated using NewLigand software (Genentech), which uses the fitting algorithm of Munson and Robard to determine the binding affinity of the antibody (Munson and Robard 1980).

[5] = molecular target: T1, human CLL-1 on cells (endogenous on …); experiment: Scatchard, EOL-1 cells
[6] = molecular target: T2, recombinant cynomolgus CLL-1 …; experiment: SPR (Biacore T200), IgG captured by anti-human Fc, CLL-1 as analyte
[7] = molecular target: T3, recombinant human CLL-1 extracellular …; experiment: as above
[8] = molecular target: T2, recombinant cynomolgus CLL-1 …; experiment: as above
[9] = molecular target: T3, recombinant human CLL-1 extracellular …; experiment: as above
[10] = molecular target: T2, recombinant cynomolgus CLL-1 …; experiment: affinity column of the TDB summary table (rounded Biacore KD of the second the 8th table / the 4th table tables)
[11] = molecular target: T3, recombinant human CLL-1 extracellular …; experiment: as above
[12] = molecular target: T1, human CLL-1 on cells (endogenous on …); experiment: Scatchard, HL-60 cells
Method: as §1, with “After the 2-hour incubation, the competition assays were transferred to a Millipore Multiscreen filter plate (Billerica, Mass.) and washed 4 times with binding buffer to separate the free from bound [I¹²⁵] labeled antibody.” left out

[13] = molecular target: T2, recombinant cynomolgus CLL-1 …; experiment: SPR (Biacore), chimeric IgG captured by anti-human IgG, CLL-1 as analyte
Method: (§2) The chimeric anti-CLL-1 human IgG were captured by mouse anti-human IgG coated on the CM5 sensor chip. […] Association rates (kon) and dissociation rates (koff) were calculated using a simple one-to-one Langmuir binding model. The equilibrium dissociation constant (KD) was calculated as the ratio koff/kon.

[14] = molecular target: T3, recombinant human CLL-1 extracellular …; experiment: as above
Method: as §2

Row | Kd [8] [nM] | koff [8] [s⁻¹] | kon [8] [M⁻¹ s⁻¹] | Kd [9] [nM] | koff [9] [s⁻¹] | kon [9] [M⁻¹ s⁻¹] | Kd [10] [nM] | Kd [11] [nM] | Kd [13] [nM] | koff [13] [s⁻¹] | kon [13] [M⁻¹ s⁻¹] | Kd [14] [nM] | koff [14] [s⁻¹] | kon [14] [M⁻¹ s⁻¹] | Binder | also measured
1 |  |  |  |  |  |  |  |  |  |  |  |  |  |  | h6E7 (6E7.L4H1e)×38E4v1 TDB (bispecific antibody, V domains shown) VH 1: EVQLVQSGAEVKKPGASVKVSCKASGYSFTDYYMHWVRQAPGQGLEWIGRINPYNGAAFYSQNFKDRVTLTVDTSTSTAYLELSSLRSEDTAVYYCAIERGADLEGYAMDYWGQGTLVTVSS VL 1: DIQMTQSPSSLSASVGDRVTITCRASQSVSTSSYNYMHWYQQKPGKPPKLLIKYASNLESGVPSRFSGSGSGTDFTLTISSLQPEDFATYYCQHSWEIPLTFGQGTKVEIK VH 2: EVQLVQSGAEVKKPGASVKVSCKASGFTFTSYYIHWVRQAPGQGLEWIGWIYPENDNTKYNEKFKDRVTITADTSTSTAYLELSSLRSEDTAVYYCARDGYSRYYFDYWGQGTLVTVSS VL 2: DIVMTQSPDSLAVSLGERATINCKSSQSLLNSRTRKNYLAWYQQKPGQSPKLLIYWTSTRKSGVPDRFSGSGSGTDFTLTISSLQAEDVAVYYCKQSFILRTFGQGTKVEIK | EC50 for killing target cells (EOL-1) [1]: 9.1 ng/mL; EC50 for killing target cells (THP-1) [1]: 5.4 ng/mL; EC50 of killing of EOL-1 (other donors) [1]: 7.4 ng/mL; EC50 of killing of EOL-1 target cells by cynomolgus pan-T cells [1]: ~5 ng/mL; EC50 of killing of HL-60 (other donors) [1]: 95.6 ng/mL; Cell killing EC50 (EOL-1 cells, human CD8+ T cells) [2]: 14 ng/mL; average killing EC50, EOL-1 (n = 5) [3]: 4.1 ng/mL; average killing EC50, HL-60 (n = 2) [3]: 104 ng/mL; average killing EC50, ML-2 [3]: 2.5 ng/mL; average killing EC50, Molm-13 (lowest expressor of CLL-1) [3]: 23 ng/mL; average killing EC50, NOMO-1 [3]: 12.2 ng/mL; average killing EC50, PL-21 [3]: 5.9 ng/mL; average killing EC50, THP-1 (n = 3) [3]: 3.6 ng/mL; average killing EC50, U937 [3]: 2.1 ng/mL; average killing EC50, human autologous CD14+ (n = 3) [3]: 2.8 ng/ml
2 | 2.26 | 0.00181 | 804000 | 1.08 | 0.000984 | 910000 | 2.2 | 1.1 |  |  |  |  |  |  | 6E7.L4H1e (antibody, V domains shown, humanized, assessed in the form of an IgG; also called humanized 6E7.L4H1e; h6E7) VH: EVQLVQSGAEVKKPGASVKVSCKASGYSFTDYYMHWVRQAPGQGLEWIGRINPYNGAAFYSQNFKDRVTLTVDTSTSTAYLELSSLRSEDTAVYYCAIERGADLEGYAMDYWGQGTLVTVSS VL: DIQMTQSPSSLSASVGDRVTITCRASQSVSTSSYNYMHWYQQKPGKPPKLLIKYASNLESGVPSRFSGSGSGTDFTLTISSLQPEDFATYYCQHSWEIPLTFGQGTKVEIK | Kd [4]: 0.68 nM and 0.35 nM; Kd [5]: 0.25 nM and 0.29 nM; Kd [6]: 0.317 nM; koff [6]: 0.000234 s⁻¹; kon [6]: 739000 M⁻¹ s⁻¹; Kd [7]: 0.622 nM; koff [7]: 0.000512 s⁻¹; kon [7]: 824000 M⁻¹ s⁻¹; Kd [12]: 0.6 nM and 0.34 nM
3 | 48.7 | 0.00869 | 178000 | 113 | 0.0344 | 304000 | 48.7 | 113 |  |  |  |  |  |  | 6E7.L4H1eD54 (antibody, V domains shown, IgG; also called h6E7D; H6E7.L4H1D54) VH: EVQLVQSGAEVKKPGASVKVSCKASGYSFTDYYMHWVRQAPGQGLEWIGRINPYDGAAFYSQNFKDRVTLTVDTSTSTAYLELSSLRSEDTAVYYCAIERGADLEGYAMDYWGQGTLVTVSS VL: DIQMTQSPSSLSASVGDRVTITCRASQSVSTSSYNYMHWYQQKPGKPPKLLIKYASNLESGVPSRFSGSGSGTDFTLTISSLQPEDFATYYCQHSWEIPLTFGQGTKVEIK | 
4 |  |  |  |  |  |  | 0.3 | 18 | 0.3 | 0.00023 | 670000 | 18 | 0.0095 | 500000 | ch28H12 (antibody, V domains shown, chimeric version of m28H12, human IgG; also called chimeric 28H12) VH: QVQLQQSGAELVKPGASVKLSCTASGFNIKDTYMHWVKQRPEQGLEWIGRIDPANGDTDYDPKFQGKATVTADTSSNTAYLQLSSLTSEDTAVYYCTISGPPYYVMDYWGQGTSVTVSS VL: DIQMTQSPASLAVSLGQRATISCRASQSVSSSSYSYMHWYQQKPGQPPKLLIKYASNLESGVPARFSGRGSGTDFTLNIHPVEEEDTATYYCQHSWEIPYTFGGGTRLEIK | 
5 |  |  |  |  |  |  | 6.1 | 4.5 | 6.1 | 0.0012 | 190000 | 4.5 | 0.001 | 220000 | ch20B1 (antibody, V domains shown, chimeric version of m20B1, human IgG; also called chimeric 20B1; 2061 [sic]) VH: EVQLQQSGPELVKPGALVKISCKASGYTFTSYDINWLKQRPGQGLEWIGWIYPGDGTTEYNERFKGKATLTADKSSSTAYLQLSSLTSENSAVYFCARSYDYDYAMDYWGQGTSVTVSS VL: DIVLTQSPAIMSASPGEKVTMTCSASSSISYMYWYQQKPGTSPKRWIYDTSKLASGVPARFSGSGSGTSYSLTISSMEAEDAATYYCHQRSSWTFGGGTKLEIK | 
